For this assay, the target named is EBVgp350/220 wild type (full length, BLLF1, EBV strain B95-8) (Epstein-Barr virus strain B95-8) (UniProt P03200). In words: cell-based or functional assay.

From US20200038505A1 come the findings set out here.

Chain of UniProt P03200 (P03200 whole entry): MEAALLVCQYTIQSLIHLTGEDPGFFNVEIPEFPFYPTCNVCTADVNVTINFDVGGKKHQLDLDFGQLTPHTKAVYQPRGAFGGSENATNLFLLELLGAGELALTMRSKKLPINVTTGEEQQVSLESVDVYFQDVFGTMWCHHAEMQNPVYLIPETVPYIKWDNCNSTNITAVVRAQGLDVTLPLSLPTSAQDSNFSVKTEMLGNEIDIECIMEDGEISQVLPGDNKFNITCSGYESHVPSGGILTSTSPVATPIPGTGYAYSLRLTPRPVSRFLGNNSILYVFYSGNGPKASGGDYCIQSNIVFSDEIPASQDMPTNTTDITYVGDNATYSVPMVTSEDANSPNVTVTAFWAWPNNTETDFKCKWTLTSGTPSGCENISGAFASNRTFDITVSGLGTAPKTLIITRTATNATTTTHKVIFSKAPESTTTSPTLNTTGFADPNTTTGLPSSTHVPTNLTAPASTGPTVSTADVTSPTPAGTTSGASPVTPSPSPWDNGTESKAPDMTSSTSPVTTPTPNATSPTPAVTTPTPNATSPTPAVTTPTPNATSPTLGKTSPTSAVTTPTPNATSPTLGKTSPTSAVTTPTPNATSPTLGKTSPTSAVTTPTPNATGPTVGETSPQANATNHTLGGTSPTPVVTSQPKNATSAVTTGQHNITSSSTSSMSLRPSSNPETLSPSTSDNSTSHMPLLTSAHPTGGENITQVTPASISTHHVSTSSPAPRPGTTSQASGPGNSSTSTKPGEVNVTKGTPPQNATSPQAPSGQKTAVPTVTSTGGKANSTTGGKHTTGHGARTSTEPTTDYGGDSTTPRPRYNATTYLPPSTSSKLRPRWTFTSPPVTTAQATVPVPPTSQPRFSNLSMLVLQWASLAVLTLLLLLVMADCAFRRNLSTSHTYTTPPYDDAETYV

For the substance “monoclonal antibody mAb-72A1 anti-gp350/220”, the percent fluorescent (EGFP+) Raji cells after infection with EGFP-EBV pre-incubated with the antibody worked out at 1%.
“monoclonal antibody mAb-2L10 anti-gp350/220”: the percent fluorescent (EGFP+) Raji cells after infection with EGFP-EBV pre-incubated with the antibody was 27% and the percent of EGFP+ Raji cells post-infection amounted to 25%.
